Experimental data reported in the Immune Epitope Database (IEDB).

Columns and labels:
[1] = target: HLA-B*07:02; experiment: IEDB peptide-MHC binding, purified MHC/direct/fluorescence; filed as Kd, often an IC50 or EC50 that approximates it; ≥ and ≤ were set here for values at or beyond the usual limits of such assays
[2] = target: HLA-B*08:01; experiment: as above
[3] = target: HLA-B*58:01; experiment: as above
[4] = target: HLA-A*26:01; experiment: as above
[5] = target: HLA-A*24:02; experiment: as above
[6] = target: HLA-A*02:01; experiment: as above
[7] = target: HLA-B*44:02; experiment: as above
[8] = target: HLA-A*11:01; experiment: as above
[9] = target: HLA-B*15:01; experiment: as above
[10] = target: HLA-A*01:01; experiment: as above
[11] = target: HLA-B*40:01; experiment: as above
[12] = target: HLA-B*46:01; experiment: as above
[13] = target: HLA-A*69:01; experiment: as above
[14] = target: HLA-B*27:05; experiment: as above
[15] = target: HLA-A*03:01; experiment: as above
[16] = target: HLA-B*18:01; experiment: as above
[17] = target: HLA-B*15:09; experiment: as above; conditions: source organism: Influenza A virus (A/Taiwan/2/2006(H1N1))
[18] = target: HLA-A*31:01; experiment: as above
[19] = target: HLA-B*07:02; experiment: IEDB peptide-MHC binding, purified MHC/competitive/fluorescence; ≥ and ≤ were set here for values at or beyond the usual limits of such assays; conditions: source organism: Zaire ebolavirus
[20] = target: HLA-A*24:02; experiment: as above; conditions: source organism: Zaire ebolavirus
[21] = target: HLA-B*15:01; experiment: as above; conditions: source organism: Zaire ebolavirus
[22] = target: HLA-A*24:03; experiment: IEDB peptide-MHC binding, purified MHC/direct/fluorescence; filed as Kd, often an IC50 or EC50 that approximates it; ≥ and ≤ were set here for values at or beyond the usual limits of such assays; conditions: source organism: Zaire ebolavirus
[23] = target: HLA-A*02:12; experiment: as above; conditions: source organism: Zaire ebolavirus
[24] = target: HLA-A*02:19; experiment: as above; conditions: source organism: Zaire ebolavirus
[25] = target: HLA-A*29:02; experiment: as above; conditions: source organism: Zaire ebolavirus
[26] = target: HLA-A*68:02; experiment: as above; conditions: source organism: Zaire ebolavirus
[27] = target: HLA-A*02:03; experiment: as above; conditions: source organism: Zaire ebolavirus
[28] = target: HLA-B*57:01; experiment: IEDB peptide-MHC binding, purified MHC/competitive/fluorescence; filed as Kd, often an IC50 or EC50 that approximates it; ≥ and ≤ were set here for values at or beyond the usual limits of such assays; conditions: source organism: Zaire ebolavirus
[29] = target: HLA-B*51:01; experiment: as above; conditions: source organism: Zaire ebolavirus
[30] = target: HLA-A*26:01; experiment: as above; conditions: source organism: Zaire ebolavirus
[31] = target: HLA-A*02:01; experiment: as above; conditions: source organism: Zaire ebolavirus
[32] = target: HLA-B*27:03; experiment: as above; conditions: source organism: Zaire ebolavirus
[33] = target: HLA-B*39:01; experiment: as above; conditions: source organism: Zaire ebolavirus
[34] = target: HLA-B*15:01; experiment: as above; conditions: source organism: Zaire ebolavirus
[35] = target: HLA-B*46:01; experiment: as above; conditions: source organism: Zaire ebolavirus
[36] = target: HLA-A*69:01; experiment: as above; conditions: source organism: Zaire ebolavirus
[37] = target: HLA-A*29:02; experiment: as above; conditions: source organism: Campylobacter jejuni subsp. jejuni NCTC 11168 = ATCC 700819
[38] = target: HLA-A*02:01; experiment: IEDB peptide-MHC binding, purified MHC/competitive/fluorescence; ≥ and ≤ were set here for values at or beyond the usual limits of such assays; conditions: source organism: Zaire ebolavirus
[39] = target: HLA-A*03:01; experiment: as above; conditions: source organism: Zaire ebolavirus
[40] = source organism: Influenza A virus (A/Viet Nam/HN/2004(H5N1))
[41] = source organism: Influenza A virus (A/Puerto Rico/8/34/Mount Sinai(H1N1))
[42] = source organism: Influenza A virus (A/Hong Kong/507/97(H5N1))
[43] = source organism: Influenza A virus (A/swine/Korea/S190/2004(H9N2))
[44] = source organism: Influenza A virus (A/England/627/01(H1N2))
[45] = source organism: Escherichia coli O157:H7

FRNQVKIRR
79 nM: Kd [14, 41]
≥ 20 µM: Kd [1, 40] | Kd [2, 40] | Kd [3, 40] | Kd ([4]; source organism: Influenza A virus(A/swine/Shandong/fNY/2003(H9N2))) | Kd [5, 40] | Kd [6, 40] | Kd [7, 40] | Kd [8, 40] | Kd [9, 40] | Kd [10, 40] | Kd [11, 40] | Kd [12, 40] | Kd [13, 40] | Kd [15, 40] | Kd [16, 40]

GTSKIKMKW
≥ 20000 nM: Kd [14, 42]
≥ 20 µM: Kd [1, 42] | Kd [2, 42] | Kd ([4]; source organism: Influenza A virus (A/Taiwan/2/2006(H1N1))) | Kd [5, 42] | Kd [6, 42] | Kd [7, 42] | Kd [8, 42] | Kd [17] | Kd [9, 42] | Kd [10, 42] | Kd [11, 42] | Kd [12, 42] | Kd [13, 42] | Kd [15, 42] | Kd [18, 42]
0.18 µM: Kd [3, 42]

IPKRNRSIL
≥ 20000 nM: Kd [14, 43]
0.015 µM: Kd [1, 41]
≥ 20 µM: Kd [3, 43] | Kd [5, 43] | Kd [6, 43] | Kd [7, 43] | Kd [8, 43] | Kd [9, 43] | Kd [10, 43] | Kd [11, 43] | Kd [12, 43] | Kd [13, 43] | Kd [15, 43] | Kd [18, 43] | Kd [16, 43]
0.268 µM: Kd [2, 41]

IWARTYFFK
0.296 µM: Kd ([5]; source organism: Salmonella enterica subsp. enterica serovar Choleraesuis str. SC-B67)

KIRSEELSF
≥ 173 µM: IC50 [19]
≥ 106 µM: IC50 [20]
≥ 91.7 µM: IC50 [21]

KMARLGKGY
0.178 µM: Kd [9, 41]
0.252 µM: Kd [15, 41]
≥ 20 µM: Kd [1, 44] | Kd [2, 44] | Kd [3, 44] | Kd [5, 44] | Kd [6, 44] | Kd [7, 44] | Kd [10, 44] | Kd [11, 44] | Kd [12, 44] | Kd [13, 44]
379 nM: Kd [14, 41]

LEFNSSLAI
0.0258 µM: Kd ([11]; source organism: Ebola virus - Gabon (1994-1997))
≥ 20 µM: Kd [22] | Kd [23] | Kd [24] | Kd [25] | Kd [26] | Kd ([15]; source organism: Zaire ebolavirus) | Kd [27] | Kd [28] | Kd [29] | Kd [30] | Kd [31] | Kd [32] | Kd [33] | Kd [34] | Kd [35] | Kd [36]

LLKLWIDKV
≥ 20000 nM: Kd [14, 45]
0.0367 µM: Kd [6, 45]
≥ 20 µM: Kd [1, 45] | Kd [3, 45] | Kd [5, 45] | Kd [7, 45] | Kd [8, 45] | Kd [9, 45] | Kd [10, 45] | Kd [11, 45] | Kd [15, 45] | Kd [18, 45] | Kd [16, 45]

LYAYWYHLY
0.8 nM: Kd [37]

RTRREAIVN
≥ 92.6 µM: IC50 [19]
≥ 119 µM: IC50 [38]

RVIPVYQVN
≥ 72.8 µM: IC50 [21]
≥ 151 µM: IC50 [19]
≥ 277 µM: IC50 [39]
51.6 µM: IC50 [20]
≥ 87.2 µM: IC50 [38]

VATAHGSTL
12.7 µM: IC50 [20]
≥ 70.5 µM: IC50 [19]
≥ 136 µM: IC50 [38]
